Biological target: CD28 on the surface of T cells and PBMCs (human) (UniProt P10747)
Test: flow cytometry of live CD3+ cells of the CD28 positive fraction after D-biotin and washing; remaining anti-CD28 Fab monomers were detected with an antibody against the Ig kappa light chain. The same antibody on cells before selection (negative control, no Fab) gives 2.73

% of cells within gate: 5.91%
Substance: αCD28 Fab fragment derived from the monoclonal anti-human CD28 antibody CD28.3, heavy chain carboxy-terminally fused to the Twin-Strep-tag (monomeric)
